The Immune Epitope Database (IEDB)

Columns and labels:
HLA-C*05:01 = test: IEDB peptide-MHC binding, purified MHC/direct/fluorescence; filed as Kd, often an IC50 or EC50 that approximates it; ≥ and ≤ were set here for values at or beyond the usual limits of such assays
HLA-B*08:01 = test: IEDB peptide-MHC binding, purified MHC/competitive/fluorescence; filed as Kd, often an IC50 or EC50 that approximates it; ≥ and ≤ were set here for values at or beyond the usual limits of such assays; conditions: source organism: Yersinia pestis Nepal516
HLA-B*35:01 = test: as above
HLA-B*51:01 = test: as above
HLA-B*07:02 [1] = test: as above
HLA-B*46:01 [2] = test: IEDB peptide-MHC binding, purified MHC/direct/fluorescence; filed as Kd, often an IC50 or EC50 that approximates it; ≥ and ≤ were set here for values at or beyond the usual limits of such assays; conditions: source organism: West Nile virus
HLA-A*02:03 = test: as above
HLA-A*02:11 = test: as above
HLA-A*02:12 = test: as above
HLA-A*02:16 = test: as above
HLA-A*02:19 = test: as above
HLA-A*03:01 = test: as above
HLA-A*23:01 = test: as above
HLA-A*24:03 = test: as above
HLA-A*29:02 = test: as above
HLA-A*68:02 = test: as above
HLA-B*27:05 = test: as above
HLA-A*02:01 [3] = test: IEDB peptide-MHC binding, purified MHC/competitive/fluorescence; filed as Kd, often an IC50 or EC50 that approximates it; ≥ and ≤ were set here for values at or beyond the usual limits of such assays
HLA-A*26:01 = test: as above
HLA-A*69:01 = test: as above; conditions: source organism: Orthohantavirus puumalaense
HLA-B*15:01 = test: as above
HLA-B*15:17 = test: as above
HLA-B*18:01 [4] = test: as above
HLA-B*27:03 = test: as above
HLA-B*39:01 = test: as above
HLA-B*46:01 [5] = test: as above
HLA-B*57:01 [6] = test: as above
HLA-A*02:01 [7] = test: IEDB peptide-MHC binding, purified MHC/competitive/fluorescence; ≥ and ≤ were set here for values at or beyond the usual limits of such assays; conditions: source organism: West Nile virus NY-99
HLA-A*31:01 = test: IEDB peptide-MHC binding, purified MHC/direct/fluorescence; filed as Kd, often an IC50 or EC50 that approximates it; ≥ and ≤ were set here for values at or beyond the usual limits of such assays; conditions: source organism: West Nile virus
HLA-B*07:02 [8] = test: as above; conditions: source organism: West Nile virus
HLA-B*15:09 = test: as above; conditions: source organism: West Nile virus strain PTRoxo
HLA-B*18:01 [9] = test: as above; conditions: source organism: West Nile virus
HLA-B*40:01 = test: as above; conditions: source organism: West Nile virus
HLA-B*44:02 = test: as above; conditions: source organism: West Nile virus
HLA-B*48:01 = test: as above; conditions: source organism: West Nile virus
HLA-B*57:01 [10] = test: as above; conditions: source organism: West Nile virus
HLA-B*58:01 = test: as above; conditions: source organism: West Nile virus
HLA-C*12:03 = test: as above; conditions: source organism: West Nile virus
HLA-C*15:02 = test: as above; conditions: source organism: West Nile virus
HLA-A*01:01 = test: as above; conditions: source organism: Ebola virus - Gabon (1994-1997)
[11] = source organism: Yersinia pestis Nepal516
[12] = source organism: Influenza A virus (A/Leningrad/1954/1(H1N1))
[13] = source organism: West Nile virus
[14] = source organism: Orthohantavirus puumalaense
[15] = source organism: Bacillus anthracis str. A0488
[16] = source organism: Mycobacterium tuberculosis str. Haarlem
[17] = source organism: Zaire ebolavirus

FPIKRISAV
Kd (HLA-C*05:01; [11]): ≥ 20 µM | Kd (HLA-B*08:01): 0.0512 µM | Kd (HLA-B*35:01; [11]): 0.0004 µM | Kd (HLA-B*51:01; [11]): 0.268 µM

LVSLGAISF
Kd (HLA-B*07:02 [1]; [12]): ≥ 20 µM | Kd (HLA-B*35:01; [12]): 0.29 µM

TVSPSAPTY
Kd (HLA-B*46:01 [2]): ≥ 20 µM | Kd (HLA-B*35:01; [13]): ≤ 0.0001 µM

LRYGNVLDV
Kd (HLA-A*02:03; source organism: Choclo virus): ≥ 20 µM | Kd (HLA-A*02:11; source organism: Choclo virus): ≥ 20 µM | Kd (HLA-A*02:12; source organism: Choclo virus): ≥ 20 µM | Kd (HLA-A*02:16; source organism: Choclo virus): ≥ 20 µM | Kd (HLA-A*02:19; source organism: Choclo virus): ≥ 20 µM | Kd (HLA-A*03:01; source organism: Choclo virus): ≥ 20 µM | Kd (HLA-A*23:01; source organism: Choclo virus): ≥ 20 µM | Kd (HLA-A*24:03; source organism: Choclo virus): ≥ 20 µM | Kd (HLA-A*29:02; source organism: Choclo virus): ≥ 20 µM | Kd (HLA-A*68:02; source organism: Choclo virus): ≥ 20 µM | Kd (HLA-B*27:05; source organism: Isla Vista hantavirus): 0.951 µM | Kd (HLA-A*02:01 [3]; [14]): ≥ 20 µM | Kd (HLA-A*26:01; [14]): ≥ 20 µM | Kd (HLA-A*69:01): ≥ 20 µM | Kd (HLA-B*15:01; [14]): ≥ 20 µM | Kd (HLA-B*15:17; [14]): ≥ 20 µM | Kd (HLA-B*18:01 [4]; [14]): ≥ 20 µM | Kd (HLA-B*27:03; [14]): ≥ 20 µM | Kd (HLA-B*39:01; [14]): ≥ 20 µM | Kd (HLA-B*46:01 [5]; [14]): ≥ 20 µM | Kd (HLA-B*51:01; [14]): ≥ 20 µM | Kd (HLA-B*57:01 [6]; [14]): ≥ 20 µM

MTVFSYKAF
Kd (HLA-B*15:01; [15]): 0.19 µM | Kd (HLA-B*35:01; [15]): 0.154 µM

EPLAVIASL
Kd (HLA-B*07:02 [1]; [11]): ≥ 20 µM | Kd (HLA-B*35:01; [11]): 0.0017 µM | Kd (HLA-B*51:01; [11]): ≥ 20 µM

AYLFTPLFK
Kd (HLA-A*23:01; [16]): 0.356 µM | Kd (HLA-A*24:03; [16]): 0.185 µM

YTMDGEYRL
IC50 (HLA-A*02:01 [7]): 0.291 µM | Kd (HLA-A*03:01; [13]): ≥ 20 µM | Kd (HLA-A*31:01): ≥ 20 µM | Kd (HLA-B*07:02 [8]): ≥ 20 µM | Kd (HLA-B*15:09): ≥ 20 µM | Kd (HLA-B*18:01 [9]): ≥ 20 µM | Kd (HLA-B*27:05; [13]): ≥ 20 µM | Kd (HLA-B*40:01): ≥ 20 µM | Kd (HLA-B*44:02): ≥ 20 µM | Kd (HLA-B*46:01 [2]): ≥ 20 µM | Kd (HLA-B*48:01): ≥ 20 µM | Kd (HLA-B*57:01 [10]): ≥ 20 µM | Kd (HLA-B*58:01): ≥ 20 µM | Kd (HLA-C*12:03): 0.347 µM | Kd (HLA-C*15:02): 0.085 µM | Kd (HLA-A*02:01 [3]; [13]): 0.00137 µM

LSDLCNFLV
Kd (HLA-A*01:01): 0.0671 µM | Kd (HLA-A*02:03; [17]): ≥ 20 µM | Kd (HLA-A*02:11; [17]): ≥ 20 µM | Kd (HLA-A*02:12; [17]): ≥ 20 µM | Kd (HLA-A*02:16; [17]): ≥ 20 µM | Kd (HLA-A*02:19; [17]): ≥ 20 µM | Kd (HLA-A*03:01; [17]): ≥ 20 µM | Kd (HLA-A*23:01; [17]): ≥ 20 µM | Kd (HLA-A*24:03; [17]): ≥ 20 µM | Kd (HLA-A*29:02; [17]): ≥ 20 µM | Kd (HLA-A*68:02; [17]): ≥ 20 µM | Kd (HLA-C*05:01; [17]): 0.013 µM | Kd (HLA-A*02:01 [3]; [17]): ≥ 20 µM | Kd (HLA-A*26:01; [17]): ≥ 20 µM | Kd (HLA-B*15:01; [17]): ≥ 20 µM | Kd (HLA-B*15:17; [17]): ≥ 20 µM | Kd (HLA-B*18:01 [4]; [17]): ≥ 20 µM | Kd (HLA-B*27:03; [17]): ≥ 20 µM | Kd (HLA-B*39:01; [17]): ≥ 20 µM | Kd (HLA-B*46:01 [5]; [17]): ≥ 20 µM | Kd (HLA-B*51:01; [17]): ≥ 20 µM | Kd (HLA-B*57:01 [6]; [17]): ≥ 20 µM
